Measurements from paper PMC7069958, “Multi-level and lineage-specific interactomes of the Hox transcription factor Ubx contribute to its functional specificity”.

Biological target: mB*UbxN51A (UniProt P83949-2 1-380, N336A)
Test: EMSA; 20 mM HEPES pH 7.9, 1.4 mM MgCl2, 1 mM ZnSO4, 40 mM KCl, 0.1 mM EDTA, 5% glycerol, 0.2 ug poly(dI-dC), 0.1 ug BSA, 10 mM DTT, 0.1% NP40, 30 ul, 20 min; gel 6% acrylamide 0.5x TBE at 4 C
Conditions: protein: recombinant; tags: His, myc-BirA* (N-terminal fusion); label: 5'-Cy5; blunt

Chain of mB*UbxN51A (P83949 other isoform, or with tags, fused parts or gaps N336A): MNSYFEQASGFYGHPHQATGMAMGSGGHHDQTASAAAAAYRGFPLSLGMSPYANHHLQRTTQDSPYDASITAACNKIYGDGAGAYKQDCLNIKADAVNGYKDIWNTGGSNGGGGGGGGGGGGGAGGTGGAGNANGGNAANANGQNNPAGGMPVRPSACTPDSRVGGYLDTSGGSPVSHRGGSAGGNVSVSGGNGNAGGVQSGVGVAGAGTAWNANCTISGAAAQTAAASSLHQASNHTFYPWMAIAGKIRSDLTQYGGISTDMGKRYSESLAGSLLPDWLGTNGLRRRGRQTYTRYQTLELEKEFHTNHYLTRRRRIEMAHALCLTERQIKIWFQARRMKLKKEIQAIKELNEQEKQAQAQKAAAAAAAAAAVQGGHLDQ

B1: Ubx consensus site probe (dsDNA)
DNA 1: TTCAGAGCGAATGATTTATGACCGGTCAAG
DNA 2: CTTGACCGGTCATAAATCATTCGCTCTGAA
- binding result: no binding
